Measured values reported in patent US20230095167A1 (UNIVERSITEIT MAASTRICHT, published 2023).
Positions count from the first letter of the chain named.

T1: recombinant NT-proBMP10 (22-312) (human, UniProt O95393 22-312)
T1 construct: In-house construct; also called pro-peptide BMP10; BMP10(312)
T1 sequence: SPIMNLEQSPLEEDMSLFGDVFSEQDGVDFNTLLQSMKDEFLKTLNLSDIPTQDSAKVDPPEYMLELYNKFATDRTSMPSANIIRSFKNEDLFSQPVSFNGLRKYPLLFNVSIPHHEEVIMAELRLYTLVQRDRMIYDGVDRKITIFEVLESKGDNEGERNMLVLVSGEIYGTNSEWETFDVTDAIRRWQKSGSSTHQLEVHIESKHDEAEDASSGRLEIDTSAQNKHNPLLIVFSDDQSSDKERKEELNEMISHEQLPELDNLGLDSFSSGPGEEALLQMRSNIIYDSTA

B1: 11C10 (antibody, V domains shown)
VH: QSLEESGGRLVTPGTALTVTCTVSGIDLSRNLMSWVRQAPGEGLEWIGSINFRNITWYASWAKGRFTISKTSTTVDLRISSPTTEDTATYFCARGVYVNSNGYYSLWGQGTPVTVSS
VL: DIVMTQTPASVEAAVGGTVTINCQASQSVSNLLAWYQQKPGQPPKLLIYGASKLESGVPSRFKGSGSGTQFTLTINDLECDDAATYYCQTYWGGDGTSYLNPFGGGTEVVVK
notes: Rabbit monoclonal IgG; also called clone 11C10; VH-3/VL-3
B2: MAB<BMP10>rRb-14C8 HC2/LC3 (p10th/p10ti)-IgG(SPA) (antibody, V domains shown)
VH: QSVEESGGRLVTPGTPLTLTCTASGIDLSRYAMTWVRQAPGKGLEWIGIIGASSGTWYASWAKGRFTIAKTSTTVDLRITSPTTEDTATYFCARDNGDSKDYAFDPWGPGTLVTVSS
VL: IDMTQTPSPVSAAVGDTVTINCQASENIYSFLAWYQQKPGHSPNLLIYFASKLVSGVPSRFKGSGSGTQFTLTISDVQCDDAATYYCQQTYTYSNGDNPFGGGTEVVVK
notes: Recombinant rabbit monoclonal IgG; also called clone 14C8; VH-5/VL-5
B3: MAB<BMP10>rRb-2H8 HC7/LC6 (p10qv/p10qw)-IgG(SPA) (antibody, V domains shown)
VH: QSVEESGGRLVTPGTPLTLTCTASAFSLSRYVMSWVRQAPGKGLEFIGFINASGSTSYASWAKGRFTISKTSTTVDLKMTSLTTEDTATYFCATGNLWGPGTLVTVSS
VL: DIVMTQTPSSVSGPVGGTVTINCQASQNIYSNLAWYQQKPGQPPKLLIYYASTLVSGVPSRFKGSGSGTQFTLTISDLECANAATYYCQSKDGPTSSTYGAFGGGTEVVVR
notes: Recombinant rabbit monoclonal IgG; also called clone 2H8; VH-6/VL-6
B4: MAB<BMP10>rRb-9E7 HC12/LC7 (p10rw/p10rx)-IgG(SPA) (antibody, V domains shown)
VH: QSLEESGGGLVQPEGSLTLTCIASAFSFSSGYYMCWVRQAPGKGLEWIACIYAGSSGTTYYASWAKGRFTISKASSTTVTLLMTSLTAADTATYFCARGPGASGYRLGLWGPGTLVTVSS
VL: DVVMTQTPASVSEPVGGTVTIKCQASEDIYRLLAWYQQKPGQPPKLLIYDASDLASGVPSRLSGSGSGTEYTLSISDLECADAATYYCQQGYYISGGDSFGGGTEVVVK
notes: Recombinant rabbit monoclonal IgG; also called clone 9E7
B5: MAB<BMP10>rRb-3H8 HC3/LC3 (p10qx/p10qy)-IgG(SPA) (antibody, V domains shown)
VH: QSVEESGGRLVTPGTPLTLTCTASGFSLSKYDMSWVRQAPGKGLEWIGAIGGRGVTDYTTWAKGRFTISKTATTVDLKMTSPTTEDTATYFCVRALAGDTLWGPGTLVTVSS
VL: AQVLTQTASPVSAAVGSTVTINCQASQNIYKYNNLAWYQQKPGQPPKRLIYEASKLASGVPSRFSGSGSGTQFTLTISGVQCEDAATYYCQGTFECSSADCFGFGGGTEVVVK
notes: Recombinant rabbit monoclonal IgG; also called clone 3H8; VH-7/VL-7
B6: MAB<BMP10>rRb-11A5 HC6/LC3.2 (p10se/p10sf)-IgG(SPA) (antibody, V domains shown)
VH: QSVEESGGRLVTPGTPLTLTCTASGFSLSSYAMSWVRQAPGKGLQFIGYISGGGSTYYASWVKGRFTISKTSTTVDLKLTSPTTEDTATYFCARGYPGYISGTWAVGQGTLVTVSS
VL: AVLTQTPSPVSAAVGGTVSISCQSSQSVVNNNRCSWFQQKPGQPPKQLIYSASTLASGVPSRFKGSGSGTQFTLTISDVQCDDAATYYCLGDYVSYGDSAFGGGTEVVVK
notes: Recombinant rabbit monoclonal IgG; also called clone 11A5; VH-2/VL-2
B7: MAB<BMP10>rRb-13G6 (p10tf/p10tg)-IgG(SPA) (antibody, V domains shown)
VH: QSLEESGGRLVTPGTPLTLTCTVSGFSLSNYAMSWVRQAPGMGLEYIGYISASGNTYYASWVKGRFTISKTSTTVDLKMTSPTTEDTATYFCARGYSGWISGTWAVGQGTLVTVSS
VL: B6 VL with S19N, S21G, C34L, K40R, S51R, G97S, D98E, S99A
notes: Recombinant rabbit monoclonal IgG; also called clone 13G6; VH-4/VL-4
B8: MAB<BMP10>rRb-8G5 HC3/LC5 (p10qz/p10ra)-IgG(SPA) (antibody, V domains shown)
VH: QSLEESGGDLVKPGASLTLTCTASGFSFSSSYWICWVRQAPGKGLEWIACIYAGSSDITYYASWAKGRFTVSKTSSPTVTLQMTSLTAADTATYFCARGRYYVDGYADYYPGDFNLWGPGTLVTVSS
VL: DIVMTQTPASVEAAVGGTVTIKCQASQSISSYLAWYQQKSGQPPKLLIYLASTLESGVPSRFKGSGSGTEFTLTISDLECADAATYYCQSYYYSSSSSYGSAFGGGTEVVVK
notes: Recombinant rabbit monoclonal IgG; also called clone 8G5; VH-8/VL-8

Key:
[1] = molecular target: T1, recombinant NT-proBMP10 (22-312); experiment: SPR Biacore 8K, 37°C, bound analyte per mAb
[2] = molecular target: T1, recombinant NT-proBMP10 (22-312); experiment: SPR Biacore 8K, 37°C, mAb captured, BMP10(312) as analyte; ln(2)/60*kd
Description: (§1) The association phase was monitored for 3 minutes; dissociation phase was monitored for 10 minutes. After each cycle of kinetics determination, the rabbit clones were eluted from the capture system by an injection of 10 mM Glycine pH 2.0 for 1 minute, followed by two consecutive injections of 10 mM Glycine pH 2.25 at 20 μL/min for 1 minute.
(§2) The dissociation rate constant kd was evaluated using a Langmuir 1:1 fit model according to the BIAcore™ evaluation software Insight SW V 2.0 from GE Healthcare. The antigen/antibody complex stability half-life time (minutes) was calculated according to the formula ln(2)/60*kd.

[3] = molecular target: T1, recombinant NT-proBMP10 (22-312); experiment: SPR Biacore 8K, 37°C, mAb captured by goat anti-rabbit Fc, BMP10(312) 3.7-300 nM as analyte; apparent, avidity-burdened
Description: as §1, §2

Binder | MR (Molar Ratio) [1] | t/2 diss (complex half-life) [2] | koff [3]
B1 | 1.3 | 26 min | 0.00045 s⁻¹
B2 | 1.3 | 10 min | 0.0012 s⁻¹
B3 | 1.2 | 38 min | 0.0003 s⁻¹
B4 | 1.4 | 21 min | 0.00054 s⁻¹
B5 | 1.3 | 15 min | 0.00078 s⁻¹
B6 | 1.4 | 30 min | 0.00039 s⁻¹
B7 | 1.3 | > 115 min | < 0.0001 s⁻¹
B8 | 1.2 | 6 min | 0.0021 s⁻¹
